This is an account of results in US20140045211A1.

In this test the target is CCR1 on HEK293 cells / HEK293 membranes stably expressing CCR1 (UniProt P32246). Nature of the test: cell-based or functional assay.
Chain of CCR1 on HEK293 cells / HEK293 membranes stably expressing CCR1 (P32246 whole entry): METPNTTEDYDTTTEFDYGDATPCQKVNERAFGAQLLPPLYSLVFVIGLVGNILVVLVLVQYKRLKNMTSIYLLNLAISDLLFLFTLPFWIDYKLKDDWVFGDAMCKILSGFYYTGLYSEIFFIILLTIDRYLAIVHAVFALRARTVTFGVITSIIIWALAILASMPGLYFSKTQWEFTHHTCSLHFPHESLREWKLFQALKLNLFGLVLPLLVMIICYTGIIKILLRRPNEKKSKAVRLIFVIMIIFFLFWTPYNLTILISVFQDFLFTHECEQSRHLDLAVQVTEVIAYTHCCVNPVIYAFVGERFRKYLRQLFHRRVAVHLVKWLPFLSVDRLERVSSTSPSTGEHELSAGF

In the case of “CCL14-fluorescein (CCL14 9-74 with added C-terminal cysteine labeled with fluorescein-5-maleimide) (from UniProt Q16627 28-93) (ligand)”, the calcium flux (dose response curve) is 2 nM.
